The target in the data set is T1, RRM3Mei2 (Schizosaccharomyces pombe, UniProt P08965 579-750).
T1 sequence: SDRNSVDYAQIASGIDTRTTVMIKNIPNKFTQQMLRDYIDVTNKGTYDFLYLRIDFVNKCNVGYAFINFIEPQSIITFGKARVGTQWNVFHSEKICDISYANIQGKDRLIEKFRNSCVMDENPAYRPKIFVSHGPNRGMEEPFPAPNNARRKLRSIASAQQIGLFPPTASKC
Put plainly: ITC; ITC: 20 mM Tris-HCl pH 7.5, 200 mM NaCl, 5 mM 2-mercaptoethanol, 20 °C; N fixed to 1. The following applies: protein: recombinant; tags: GST-tag removed by 3C protease. For orientation: ITC needs no label: the signal is the heat of the interaction.
By Kd is commonly meant a measure of binding affinity in units of concentration. Turning to UUUUUUUUUUUUUUU (ssRNA) [poly-U15], the dissociation constant Kd came to 1430 ± 194 nM.
With GCUUUUUGUUCG (ssRNA) [GCUUUUUGUUCG 12-mer] the figure was 555 ± 166 nM; with UUUUUUGGUUUUUUU (ssRNA) [U6GGU7], 435 ± 112 nM.
UUUUUUUGUUUUUUU (ssRNA) [U7GU7]: the Kd came out at 145 ± 26 nM.

The values are drawn from publication PMC7859202, “A scaffold lncRNA shapes the mitosis to meiosis switch”.
